# Assay results taken from patent US20230074436A1 (DENALI THERAPEUTICS, published 2023).
# No end group written: not given here. *: point of attachment. Biotin = O=C1N[C@H]2[C@H](CS[C@H]2CCCCC(=O)*)N1
# T1: asyn_113-127_125A (human)
# T1 construct: substitution is already in the entry; also called pep15
# T1 peptide: Biotin-LEDMPVDPDNEAAEM
# T2: asyn_113-127_124P (human)
# T2 construct: substitution is already in the entry; also called pep14
# T2 peptide: Biotin-LEDMPVDPDNEPYEM
# T3: asyn_113-127_122A (human)
# T3 construct: substitution is already in the entry; also called pep11
# T3 peptide: Biotin-LEDMPVDPDAEAYEM
# T4: asyn_113-127_124G (human)
# T4 construct: substitution is already in the entry; also called pep13
# T4 peptide: Biotin-LEDMPVDPDNEGYEM
# T5: asyn_113-127_117A (human)
# T5 construct: substitution is already in the entry; also called pep6
# T5 peptide: Biotin-LEDMAVDPDNEAYEM
# T6: asyn_113-127_120A (human)
# T6 construct: substitution is already in the entry; also called pep9
# T6 peptide: Biotin-LEDMPVDADNEAYEM
# T7: asyn_113-127_121A (human)
# T7 construct: substitution is already in the entry; also called pep10
# T7 peptide: Biotin-LEDMPVDPANEAYEM
# T8: asyn_113-127_126A (human)
# T8 construct: substitution is already in the entry; also called pep16
# T8 peptide: Biotin-LEDMPVDPDNEAYAM
# T9: asyn_113-127 (human)
# T9 construct: also called pep1
# T9 peptide: Biotin-LEDMPVDPDNEAYEM
# T10: asyn_113-127_118A (human)
# T10 construct: substitution is already in the entry; also called pep7
# T10 peptide: Biotin-LEDMPADPDNEAYEM
# T11: asyn_113-127_127A (human)
# T11 construct: substitution is already in the entry; also called pep17
# T11 peptide: Biotin-LEDMPVDPDNEAYEA
# T12: asyn_113-127_123A (human)
# T12 construct: substitution is already in the entry; also called pep12
# T12 peptide: Biotin-LEDMPVDPDNAAYEM
# T13: asyn_113-127_114A (human)
# T13 construct: substitution is already in the entry; also called pep3
# T13 peptide: Biotin-LADMPVDPDNEAYEM
# T14: asyn_113-127_119A (human)
# T14 construct: substitution is already in the entry; also called pep8
# T14 peptide: Biotin-LEDMPVAPDNEAYEM
# T15: asyn_113-127_115A (human)
# T15 construct: substitution is already in the entry; also called pep4
# T15 peptide: Biotin-LEAMPVDPDNEAYEM
# T16: asyn_113-127_116A (human)
# T16 construct: substitution is already in the entry; also called pep5
# T16 peptide: Biotin-LEDAPVDPDNEAYEM
# T17: asyn_113-127_113A (human)
# T17 construct: substitution is already in the entry; also called pep2
# T17 peptide: Biotin-AEDMPVDPDNEAYEM
# Legend:
# [1] = biological target: T18, alpha-synuclein peptide 95-140 (human); experiment: peptide ELISA, coated fragment
# T18 construct: synthetic peptide coated on plate
# Protocol: (§1) 96-well Nunc plates were coated with 1 pg/mL of the indicated synthetic peptide in PBS 50 μL/well overnight. The plates were washed three times with PBST, then blocked with 150 μL of 3% BSA in PBS for 1 hour. Purified antibody was diluted by serial dilution methods, from 10 pg/mL to 0.6 ng/ml, and 50 μL of the antibody solution was added to the peptide-coated wells. The plates were incubated for 1 hour at room temperature, then washed three times with PBST. Secondary detection antibody, goat anti-rat HRP (obtained from Southern Biotech) 1:5,000 diluted in BSA-PBS, was added to a concentration of 50 μL/well. Plates were incubated for one hour and washed three times with PBST. Plates were then developed with 50 μL/well of TMB substrate (obtained from Thermo Fisher) and quenched with 50 μL/well of 1 N sulfuric acid. The signal was quantified on a BioTek® plate reader at A450.
# [2] = biological target: T19, alpha-synuclein peptide 61-140 (human); experiment: peptide ELISA, coated fragment
# T19 construct: synthetic peptide coated on plate
# Protocol: as §1
# [3] = biological target: T1, asyn_113-127_125A; experiment: Ala-scan peptide ELISA, row H, run 2
# Protocol: (§2) 96-well Nunc plates were coated with 50 μL per well of 1 μg/mL streptavidin (from Jackson Immuno Research Laboratory) in PBS at 4° C. overnight. The plates were washed three times with PBST, and blocked with PBS containing 3% BSA at room temperature for 1 hour. The N-terminal biotinylated peptides were dissolved in Milli Q water to a concentration of 2 mg/mL, then further diluted to a concentration of 2 μg/mL with PBS. 50 μl of the diluted peptide was applied to the streptavidin-coated plates and incubated at 4° C. overnight. 2 μg/mL of biotinylated human alpha-synuclein was used as the positive control. The plates were washed three times with PBST before use. Purified antibody was diluted by serial dilution methods, from 20 μg/mL to 1 ng/mL, and 50 μL of the antibody solution was added to the peptide-coated wells. The plates were incubated for 1 hour at room temperature, then washed three times with PBST. Secondary detection antibody (goat anti-rat HRP (obtained from Southern Biotech)) was added with 1:5,000 dilutions and incubated for 1 hour at room temperature, then washed three times with PBST. Plates were developed with 50 μL/well of TMB substrate (Thermo Fisher) and quenched with 50 μL/well of 1 N sulfuric acid. The signal was quantified on a BioTek® plate reader at A450. A parallel repeat was performed for each peptide in a separate plate.
# [4] = biological target: T2, asyn_113-127_124P; experiment: Ala-scan peptide ELISA, row H, run 2
# Protocol: as §2
# [5] = biological target: T3, asyn_113-127_122A; experiment: Ala-scan peptide ELISA, row H, run 2
# Protocol: as §2
# [6] = biological target: T4, asyn_113-127_124G; experiment: Ala-scan peptide ELISA, row H, run 2
# Protocol: as §2
# [7] = biological target: T5, asyn_113-127_117A; experiment: Ala-scan peptide ELISA, row H, run 2
# Protocol: as §2
# [8] = biological target: T6, asyn_113-127_120A; experiment: Ala-scan peptide ELISA, row H, run 2
# Protocol: as §2
# [9] = biological target: T20, biotinylated human alpha-synuclein (human, UniProt P37840 1-140); experiment: Ala-scan peptide ELISA, row H, run 2
# Protocol: as §2
# [10] = biological target: T7, asyn_113-127_121A; experiment: Ala-scan peptide ELISA, row H, run 2
# Protocol: as §2
# [11] = biological target: T8, asyn_113-127_126A; experiment: Ala-scan peptide ELISA, row H, run 2
# Protocol: as §2
# [12] = biological target: T9, asyn_113-127; experiment: Ala-scan peptide ELISA, row H, run 2
# Protocol: as §2
# [13] = biological target: T10, asyn_113-127_118A; experiment: Ala-scan peptide ELISA, row H, run 2
# Protocol: as §2
# [14] = biological target: T11, asyn_113-127_127A; experiment: Ala-scan peptide ELISA, row H, run 2
# Protocol: as §2
# [15] = biological target: T12, asyn_113-127_123A; experiment: Ala-scan peptide ELISA, row H, run 2
# Protocol: as §2
# [16] = biological target: T13, asyn_113-127_114A; experiment: Ala-scan peptide ELISA, row H, run 2
# Protocol: as §2
# [17] = biological target: T14, asyn_113-127_119A; experiment: Ala-scan peptide ELISA, row H, run 2
# Protocol: as §2
# [18] = biological target: T15, asyn_113-127_115A; experiment: Ala-scan peptide ELISA, row H, run 2
# Protocol: as §2
# [19] = biological target: T16, asyn_113-127_116A; experiment: Ala-scan peptide ELISA, row H, run 2
# Protocol: as §2
# [20] = biological target: T17, asyn_113-127_113A; experiment: Ala-scan peptide ELISA, row H, run 2
# Protocol: as §2
# [21] = biological target: T2, asyn_113-127_124P; experiment: Ala-scan peptide ELISA, row A, run 2
# Protocol: as §2
# [22] = biological target: T3, asyn_113-127_122A; experiment: Ala-scan peptide ELISA, row A, run 2
# Protocol: as §2
# [23] = biological target: T20, biotinylated human alpha-synuclein; experiment: Ala-scan peptide ELISA, row A, run 2
# Protocol: as §2
# [24] = biological target: T8, asyn_113-127_126A; experiment: Ala-scan peptide ELISA, row A, run 2
# Protocol: as §2
# [25] = biological target: T9, asyn_113-127; experiment: Ala-scan peptide ELISA, row A, run 2
# Protocol: as §2
# [26] = biological target: T12, asyn_113-127_123A; experiment: Ala-scan peptide ELISA, row A, run 2
# Protocol: as §2
# [27] = biological target: T13, asyn_113-127_114A; experiment: Ala-scan peptide ELISA, row A, run 2
# Protocol: as §2
# [28] = biological target: T14, asyn_113-127_119A; experiment: Ala-scan peptide ELISA, row A, run 2
# Protocol: as §2
# [29] = biological target: T15, asyn_113-127_115A; experiment: Ala-scan peptide ELISA, row A, run 2
# Protocol: as §2
# [30] = biological target: T17, asyn_113-127_113A; experiment: Ala-scan peptide ELISA, row A, run 2
# Protocol: as §2
# [31] = biological target: T4, asyn_113-127_124G; experiment: Ala-scan peptide ELISA, row F, run 1
# Protocol: as §2
# [32] = biological target: T9, asyn_113-127; experiment: Ala-scan peptide ELISA, row F, run 1
# Protocol: as §2
# [33] = biological target: T10, asyn_113-127_118A; experiment: Ala-scan peptide ELISA, row F, run 1
# Protocol: as §2
# [34] = biological target: T11, asyn_113-127_127A; experiment: Ala-scan peptide ELISA, row F, run 1
# Protocol: as §2
# [35] = biological target: T12, asyn_113-127_123A; experiment: Ala-scan peptide ELISA, row F, run 1
# Protocol: as §2
# [36] = biological target: T16, asyn_113-127_116A; experiment: Ala-scan peptide ELISA, row F, run 1
# Protocol: as §2
binder,measurement,setting,value
"20H4 (antibody, rat IgG2b, V domains shown, also called clone 20H4; rat 20H4) VH: AVQLVESGGGLVQPKESLKISCAASGFTFSNAAMYWVRQAPGKGLELLARIRTKPNNYATYHADSVKGRFTISRDDSQSMVYLHMGNLKTEDTAMYYCTADMATGDYWGPGVMVTVSS VL: DIQMTQSPPVLSVSVGDRVTLSCKASQNINKNLDWYQQKHGEAPKPLIYSTNNLQTGVPSRFSGSGSGTDYTLTISSLQPEDVATYYCYQYKSAWTFGGGTKLELR",antibody concentration at which ELISA is positive,[1],< 40 ng/mL
same,antibody concentration at which ELISA is positive,[2],< 40 ng/mL
same,A450,[3],0.049 OD
same,A450,[4],0.046 OD
same,A450,[5],0.051 OD
same,A450,[6],0.066 OD
same,A450,[7],0.083 OD
same,A450,[8],0.057 OD
same,A450,[9],0.087 OD
same,A450,[10],0.069 OD
same,A450,[11],0.073 OD
same,A450,[12],0.064 OD
same,A450,[13],0.071 OD
same,A450,[14],0.066 OD
same,A450,[15],0.068 OD
same,A450,[16],0.066 OD
same,A450,[17],0.046 OD
same,A450,[18],0.052 OD
same,A450,[19],0.073 OD
same,A450,[20],0.066 OD
same,A450,[21],0.069 OD
same,A450,[22],0.08 OD
same,A450,[23],0.907 OD
same,A450,[24],0.469 OD
same,A450,[25],0.374 OD
same,A450,[26],0.441 OD
same,A450,[27],0.401 OD
same,A450,[28],0.06 OD
same,A450,[29],0.405 OD
same,A450,[30],0.44 OD
same,A450,[31],0.145 OD
same,A450,[32],0.149 OD
same,A450,[33],0.169 OD
same,A450,[34],0.144 OD
same,A450,[35],0.171 OD
same,A450,[36],0.172 OD
